Test results from US20100279930A1, “HUMAN PANCREATIC POLYPEPTIDE (HPP) ANALOGUES AND THEIR EFFECTS ON FEEDING BEHAVIOUR” (priority 2007, published 2010).

System: Male C57BL/6 mice
Assay: In vivo food intake experiments in mice (half-life in the blood judged from appetite suppression)
Parameters: species or system mouse
Conditions: comparator native human PP; judged from food intake reduction in mice (4-8 h, 0-24 h, 4:1 or 24:1 ratio)
Experimental: In Vivo Food Intake Experiments
Male C57BL/6 mice (20-30 g) were used for all mouse experiments. Mice were individually housed in IVC cages. Animals were randomized by weight and fasted overnight for 16 hrs before intraperitoneal injection at 9 am. All peptide solutions were prepared freshly the morning of the study and injected as 100 ul. Food intake was measured at 1, 2, 3, 4, 6, 8 and 24 hours post injection. The peptide was dosed at 30 nmol/kg, 50 nmol/kg, 100 nmol/kg, 120 nmol/kg, 150 nmol/kg, 300 nmol/kg, 600 nmol/kg or 1000 nmol/kg depending on the activity. In each case, a control of saline and a control of unmodified human Pancreatic Polypeptide was carried out. All statistics are calculated using a one-way ANOVA with Dunnett's post-test or one-way ANOVA with Bonferroni post-test.
A control of saline was used.
FIG. 2 and in the comparative graph of FIG. 3. […] It is hypothesized that that is as a possible result of stronger activity at the receptor and longer activity.
The mouse is a good model for degradation rates in humans, irrespective of the fact that the receptors for PP in mice are different from the human receptor.

B1: 4055860 (peptide)
chain: CAPLEPVYPGDNATPEQMAQYAADLRRYINMLTRPRYCAPLEPVYPGDNATPEQMAQYAADLRRYINMLTRPRY
modifications: synthetic hPP analogue peptide
half-life in the blood compared with native human PP: longer half life
